Measured values published in patent US20220387578A1.

Assays:
[1] = molecular target: H1 HA A/Solomon Islands/03/2006 (H1N1), recombinant soluble trimer (influenza A virus)
[2] = molecular target: H1 HA A/Texas/36/1991 (H1N1), recombinant soluble trimer (influenza A virus)
[3] = molecular target: H3 HA A/Texas/50/2012, recombinant soluble trimer (influenza A virus)

Substance | EC50 [1] [µg/mL] | EC50 [2] [µg/mL] | EC50 [3] [µg/mL] | EC50 relative to wild type rFluA-20 [1] [fold]
rFluA-20 heavy chain mutant C101A (antibody) | 0.2 | 0.15 | 0.39 | –
rFluA-20 light chain mutant N53A (antibody) | 0.05 | 0.04 | 0.09 | –
rFluA-20 light chain mutant Q55A (antibody) | – | 0.23 | – | > 100
